The conditions of experiment [1]: overweight and obese individuals, 24-week Phase 2 clinical trial; cited from earlier work.
Experiment [2] addresses T1, GLP-1R (Homo sapiens, UniProt P43220). The experiment in a line: β-arrestin-2 recruitment to GLP-1R measured by BRET. Format: cell-based. Particulars: for Emax: HEK-293T, read-out: β-arrestin-2 Max response (% GLP-1). (In general: Arrestin recruitment assays detect the binding of arrestin to an activated receptor.)
Experiment [3] deals with GLP-1R-Rluc8 (UniProt P43220).
Chain of GLP-1R-Rluc8 (P43220 24-463): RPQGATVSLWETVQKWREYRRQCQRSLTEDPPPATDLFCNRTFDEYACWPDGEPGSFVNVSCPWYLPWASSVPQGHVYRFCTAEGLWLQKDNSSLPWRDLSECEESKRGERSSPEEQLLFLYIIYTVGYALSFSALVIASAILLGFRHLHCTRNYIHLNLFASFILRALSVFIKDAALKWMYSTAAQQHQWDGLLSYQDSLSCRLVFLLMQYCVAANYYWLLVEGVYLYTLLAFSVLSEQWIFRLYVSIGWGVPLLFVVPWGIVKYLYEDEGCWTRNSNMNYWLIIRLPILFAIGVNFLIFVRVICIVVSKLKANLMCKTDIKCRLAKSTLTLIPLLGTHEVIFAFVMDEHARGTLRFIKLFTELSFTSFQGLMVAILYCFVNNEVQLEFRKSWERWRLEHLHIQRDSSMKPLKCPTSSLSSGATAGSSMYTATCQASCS
In experiment [4] the target is glucagon-like peptide-1 receptor (UniProt P43220).
Chain of glucagon-like peptide-1 receptor (P43220 24-463): as above
Experiment [5] has as its target T1, GLP-1R. The following applies: vs GLP-1; stated as an observation, no reference given; cited from earlier work.
The target of experiment [6] is glucose-dependent insulinotropic polypeptide receptor (UniProt P48546).
Chain of glucose-dependent insulinotropic polypeptide receptor (P48546 22-466): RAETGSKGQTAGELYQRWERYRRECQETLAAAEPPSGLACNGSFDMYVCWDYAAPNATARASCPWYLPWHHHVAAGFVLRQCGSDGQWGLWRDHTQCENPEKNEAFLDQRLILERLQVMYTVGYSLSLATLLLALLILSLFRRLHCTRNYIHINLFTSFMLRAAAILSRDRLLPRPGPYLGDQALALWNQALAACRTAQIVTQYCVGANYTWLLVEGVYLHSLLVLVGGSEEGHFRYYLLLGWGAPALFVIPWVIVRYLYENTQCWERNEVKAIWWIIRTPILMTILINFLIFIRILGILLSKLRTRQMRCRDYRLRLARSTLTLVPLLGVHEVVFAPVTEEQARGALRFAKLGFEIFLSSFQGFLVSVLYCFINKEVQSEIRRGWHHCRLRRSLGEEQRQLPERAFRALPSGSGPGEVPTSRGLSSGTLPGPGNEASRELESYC
Experiment [7] deals with glucagon receptor (UniProt P47871).

Square brackets hold non-standard residues; d marks the D form. Ends that are not written are not given here. Aib = CC(C)(N)C(=O)O

The EC50 is the midpoint of the concentration-response curve. Low readings indicate higher potency in that assay, high ones lower potency in that assay.

T1 sequence (P43220 24-463, species assumed): as the sequence (P43220 24-463) above

With `CC[C@H](C)[C@H](NC(=O)[C@H](Cc1ccccc1)NC(=O)[C@H](C)NC(=O)C(C)(C)NC(=O)[C@H](CCC(N)=O)NC(=O)[C@H](C)NC(=O)[C@H](CCCCNC(=O)COCCOCCNC(=O)CC[C@H](NC(=O)CCCCCCCCCCCCCCCCCCC(=O)O)C(=O)O)NC(=O)[C@H](CCCCN)NC(=O)[C@H](CC(=O)O)NC(=O)[C@H](CC(C)C)NC(=O)[C@](C)(CC(C)C)NC(=O)[C@@H](NC(=O)[C@H](CO)NC(=O)[C@H](Cc1ccc(O)cc1)NC(=O)[C@H](CC(=O)O)NC(=O)[C@H](CO)NC(=O)[C@@H](NC(=O)[C@H](Cc1ccccc1)NC(=O)[C@@H](NC(=O)CNC(=O)[C@H](CCC(N)=O)NC(=O)C(C)(C)NC(=O)[C@@H](N)Cc1ccc(O)cc1)[C@@H](C)O)[C@@H](C)O)[C@@H](C)CC)C(=O)N[C@@H](CCC(=O)O)C(=O)N[C@@H](Cc1ccc(O)cc1)C(=O)N[C@@H](CC(C)C)C(=O)N[C@@H](CC(C)C)C(=O)N[C@@H](CCC(=O)O)C(=O)NCC(=O)NCC(=O)N1CCC[C@H]1C(=O)N[C@@H](CO)C(=O)N[C@@H](CO)C(=O)NCC(=O)N[C@@H](C)C(=O)N1CCC[C@H]1C(=O)N1CCC[C@H]1C(=O)N1CCC[C@H]1C(=O)N[C@@H](CO)C(N)=O` [Retatrutide], the maximal weight loss in experiment [1] is 24%. Moreover, in experiment [2], the Emax was determined as 58 ± 5%.

The compound GEP44 (peptide) gave a pEC50 of β-arrestin-2 recruitment to GLP-1R, BRET, HEK293T cells in experiment [3] of 7.67. Besides, the EC50, cAMP-dependent CRE6x-luciferase reporter gene assay, HEK293 cells in experiment [4] is 0.64 pM.

On to GLP-1(9–36 amide), for which the “loss in receptor potency of the DPP4-truncated form” value in experiment [5] was > 1,000 fold.

Regarding “H[Aib]QGTFTSDYSKYLDERAAQDFVQWLLDGGPSLRHYLNLVTRQRY-NH2 (C-terminus assumed) [TC0]”, in experiment [2], the concentration for a half-maximal effect (EC50) is 21400 pM and the Emax was 90 ± 5%.

Compound Retatrutide (peptide) registered a pEC50 of β-arrestin-2 recruitment to GLP-1R, BRET, HEK293T cells in experiment [3] of 7.62. In addition, the EC50, cAMP-dependent CRE6x-luciferase reporter gene assay, HEK293 cells in experiment [6] worked out at 2.2 pM; in experiment [4] it was 11 pM; in experiment [7], 8.2 pM.

The record behind these values is article PMC12560177 (Journal of the American Chemical Society, 2025).
